Here are results for 13 molecules from patent US20240270866A1 (Alector, published 2024).

Numbering of substitutions follows the chain as printed.

T1: mouse SIRPA overexpressed on CHO cells (mouse, UniProt P97797 32-513)
T1 construct: also called CHO-muSIRPA
T1 sequence: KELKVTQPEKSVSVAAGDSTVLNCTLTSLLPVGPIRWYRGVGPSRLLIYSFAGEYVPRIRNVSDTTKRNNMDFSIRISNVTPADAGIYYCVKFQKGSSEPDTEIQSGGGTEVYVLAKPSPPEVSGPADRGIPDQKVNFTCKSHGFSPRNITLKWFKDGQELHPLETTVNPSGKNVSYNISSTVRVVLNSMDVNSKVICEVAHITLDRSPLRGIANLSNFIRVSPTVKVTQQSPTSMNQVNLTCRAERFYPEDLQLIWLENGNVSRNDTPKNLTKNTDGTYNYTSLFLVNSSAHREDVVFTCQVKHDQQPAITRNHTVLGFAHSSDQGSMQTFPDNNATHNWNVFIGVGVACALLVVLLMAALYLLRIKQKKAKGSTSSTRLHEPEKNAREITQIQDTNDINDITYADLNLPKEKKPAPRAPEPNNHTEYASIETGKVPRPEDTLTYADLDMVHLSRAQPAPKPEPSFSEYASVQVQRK

T2: Mouse SIRPA D1 Fc (mouse, UniProt P97797 32-150, limits assumed)
T2 sequence: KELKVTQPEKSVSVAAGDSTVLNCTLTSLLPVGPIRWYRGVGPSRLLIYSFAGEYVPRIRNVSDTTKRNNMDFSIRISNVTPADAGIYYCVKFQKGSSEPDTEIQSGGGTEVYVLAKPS

B1: SA-34 (antibody, V domains shown)
VH: QVQLVQSGAEVKKPGASVKVSCKASGYTFTNYGISWVRQAPGQGLEWMGWISAYNGNTNYAQKLQGRVTMTTDTSTSTAYMELRSLRSDDTAVYYCARDVYSSYSYWGQGTLVTVSS
VL: DIQLTQSPSTLSASVGDRVTITCRASQSISSWLAWYQQKPGKAPKLLIYDASSLESGVPSRFSGSGSGTEFTLTISSLQPDDFATYYCQQYELLPPTFGGGTKVEIK
notes: IgG
B2: SA-35 (antibody, V domains shown)
VH: QVQLVQSGAEVKKPGASVKVSCKASGYTFTSYYMHWVRQAPGQGLEWMGIINPSGGSTSYAQKFQGRVTMTRDTSTSTVYMELSSLRSEDTAVYYCAREAGYDIKGFDYWGQGTLVTVSS
VL: B1 VL with L4M, D50K, E92G, L93S, L94F, P96L
notes: IgG
B3: SA-58 (antibody, V domains shown)
VH: QLQLQESGPGLVKPSETLSLTCTVSGGSISSSSYAWGWIRQPPGKGLEWIGSIYYSGSTYYNPSLKSRVTISVDTSKNQFSLKLSSVTAADTAVYYCARLPMGCGSGMDVWGQGTTVTVSS
VL: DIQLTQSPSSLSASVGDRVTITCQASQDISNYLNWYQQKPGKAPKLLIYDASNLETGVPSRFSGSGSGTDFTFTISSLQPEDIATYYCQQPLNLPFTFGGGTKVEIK
notes: IgG
B4: SA-39 (antibody, V domains shown)
VH: QVQLVQSGAEVKKPGASVKVSCKASGYTFTSYYMVWVRQAPGQGLEWMGIINPSGGSTSYAQKFQGRVTMTRDTSTSTVYMELSSLRSEDTAVYYCAREGGYGYRAYPYGMDVWGQGTTVTVSS
VL: DIQMTQSPSSLSASVGDRVTITCQASQDISNSLNWYQQKPGKAPKLLIYDASNLETGVPSRFSGSRSGTDFTFTISSLQPEDIATYYCQQVIILPLTFGGGTKVEIK
notes: IgG
B5: SA-47 (antibody, V domains shown)
VH: B4 VH with V35H, G100V, Y102V, G103S, Y104G, R105W, A106E, Y107I, P108T
VL: DIQMTQSPSSVSASVGDRVTITCRASQGISSWLAWYQQKPGKAPKLLIYAASSLQSGVPSRFSGSGSGTDFTLTISSLQPEDFATYYCQQISSYPITFGGGTKVEIK
notes: IgG
B6: SA-43 (antibody, V domains shown)
VH: QLQLQESGPGLVKPSETLSLTCTVSGGSISSSSYAWGWIRQPPGKGLEWIGSIYYSGSTYYNPSLKSRVTISVDTSKNQFSLKLSSVTAADTAVYYCARELETSRHDIWGQGTTVTVSS
VL: B5 VL with I91A, S93A, Y94F
notes: IgG
B7: SA-32 (antibody, V domains shown)
VH: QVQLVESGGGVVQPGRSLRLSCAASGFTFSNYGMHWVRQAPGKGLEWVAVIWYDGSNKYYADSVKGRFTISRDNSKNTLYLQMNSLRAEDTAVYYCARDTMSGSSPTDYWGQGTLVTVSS
VL: EIVMTQSPATLSVSPGERATLSCRASQSVGSNLAWYQQKPGQAPRLLIYGASTRATGIPARFSGSGSGTEFTLTISSLQSEDFAVYYCQQLNVFPWTFGGGTKVEIK
notes: IgG
B8: SA-28 (antibody, V domains shown)
VH: QVQLQESGPGLVKPSQTLSLTCTVSGGSISSGGYYWSWIRQHPGKGLEWIGNIYYSGSTYYNPSLKSRVTISVDTSKNQFSLKLSSVTAADTAVYYCARDSDTSWGGFDYWGQGTLVTVSS
VL: EIVLTQSPGTLSLSPGERATLSCRASQSVRSSYLAWYQQKPGQAPRLLIYGASSRATGIPDRFSGSGSGTDFTLTISRLEPEDFAVYYCQQAGVSPYTFGGGTKVEIK
notes: IgG
B9: SA-31 (antibody, V domains shown)
VH: QVQLVQSGAEVKKPGSSVKVSCKASGGTFSSYAISWVRQAPGQGLEWMGSIIPIFGTANYAQKFQGRVTITADESTSTAYMELSSLRSEDTAVYYCARDRGYPRYSYLDLWGRGTLVTVSS
VL: B8 VL with R30S, A92F, G93F, V94S, S95Y, Y97P
notes: IgG
B10: SA-29 (antibody, V domains shown)
VH: B8 VH
VL: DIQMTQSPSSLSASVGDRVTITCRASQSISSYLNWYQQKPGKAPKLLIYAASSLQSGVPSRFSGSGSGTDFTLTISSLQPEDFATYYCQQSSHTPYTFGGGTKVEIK
notes: IgG
B11: SA-37 (antibody, V domains shown)
VH: QVQLQESGPGLVKPSQTLSLTCTVSGGSISSGGYYWSWIRQHPGKGLEWIGSIYYSGSTYYNPSLKSRVTISVDTSKNQFSLKLSSVTAADTAVYYCAREGAYSLYVNWFDPWGQGTLVTVSS
VL: B8 VL with R30S, Y33F, A92Y, G93D, V94G, S95V, Y97I
notes: IgG
B12: SA-38 (antibody, V domains shown)
VH: B11 VH
VL: EIVMTQSPATLSVSPGERATLSCRASQSVSSSLAWYQQKPGQAPRLLIFGASTRATGIPARFSGSGSGTEFTLTISSLQSEDFAVYYCQQYDNYPPITFGGGTKVEIK
notes: IgG
B13: SA-36 (antibody, V domains shown)
VH: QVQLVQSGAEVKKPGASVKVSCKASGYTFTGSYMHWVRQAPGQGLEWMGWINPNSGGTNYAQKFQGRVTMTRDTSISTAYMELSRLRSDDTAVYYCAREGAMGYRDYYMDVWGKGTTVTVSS
VL: EIVLTQSPATLSLSPGERATITCQASQDISSYLAWYQQKPGQAPRLLIYDASNRATGIPARFSGSGSGTDFTLTISSLEPEDFAVYYCQQRTHYPWTFGGGTKVEIK
notes: IgG

One assay addresses T1, mouse SIRPA overexpressed on CHO cells. Nature of the assay: flow, CHO-muSIRPA.
Take B1: the binding result is “no binding (tested: 1 ug/ml)”.

As for B2, the binding result is “no binding (tested: 1 ug/ml)”.

For the molecule B3, the binding result is reported as “no binding (tested: 1 ug/ml)”.

Take B4: the binding result was “no binding (tested: 1 ug/ml)”.

As for B5, the binding result is “no binding (tested: 1 ug/ml)”.

Take B6: the binding result was “no binding (tested: 1 ug/ml)”.

For B7, the binding result is reported as “no binding (tested: 1 ug/ml)”.

As for B8, the binding result is “no binding (tested: 1 ug/ml)”.

For B9, the binding result was “no binding (tested: 1 ug/ml)”.

As to B10, the binding result was “no binding (tested: 1 ug/ml)”.

B11: the binding result was “no binding (tested: 1 ug/ml)”.

For the molecule B12, the binding result is recorded as “no binding (tested: 1 ug/ml)”.

In the case of B13, the binding result was “no binding (tested: 1 ug/ml)”.

In the next assay the target is T3, Human SIRPA D1 Fc (human, UniProt P78324 32-137).
T3 construct: not shown: human IgG1 Fc
Kind of assay: ForteBio IgG avid. (In general: Biolayer interferometry detects binding as a change in optical thickness at a sensor tip.)
With B1, binding was put at a Kd of 26.8 nM.

Turning to B2, the Kd (commonly the equilibrium constant for the complex coming apart) stood at 10.2 nM.

The molecule B3 returned a Kd of 4.31 nM.

The molecule B4 gave a Kd of 3.62 nM.

For the molecule B5, the dissociation constant Kd is 15.4 nM.

For the molecule B6, binding was put at a Kd of 10.5 nM.

The molecule B7 came in with a Kd of 24.4 nM.

Molecule B8 returned a Kd of 6.67 nM.

The molecule B9 registered a Kd of 6.47 nM.

With B10, the Kd was found to be 4.55 nM.

For the molecule B11, the Kd is 10.2 nM.

B12: the Kd amounted to 3.81 nM.

Consider B13, for which the Kd was determined as 8.67 nM.

For the next assay, the target named is T2, Mouse SIRPA D1 Fc. Kind of assay: ForteBio IgG avid.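 Note: antibody IgG captured on AHQ biosensors, then 100 nM Fc-fused SIRP antigen applied for 3 min, followed by 3 min buffer dissociation, kinetics fitted to a 1:1 model.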
Description: (§1) Briefly, ForteBio affinity measurements were performed by loading IgGs on-line onto AHQ sensors. Sensors were equilibrated off-line in assay buffer for 30 min and then monitored on-line for 60 seconds for baseline establishment. For avid binding measurement, sensors with loaded IgGs were exposed to 100 nM antigen (human SIRPA or SIRPβ1 Fc fusion) for 3 min, afterwards they were transferred to assay buffer for 3 min for off-rate measurement. Additional avid binding was determined by loading biotinylated SIRPA monomer on SA sensors and exposure to 100 nM IgG in solution. Monovalent binding measurements were obtained by loading human SIRPA or SIRPβ1 Fc fusion antigens to AHQ sensor and followed by exposure to 100 nM anti-SIRPA antibody Fab. Additional monovalent measurements were made by loading biotinylated human SIRPA or SIRPβ1 monomer to SA sensor followed by exposure to 100 nM Fab in solution. Kinetics data were fit using a 1:1 binding model in the data analysis software provided by ForteBio.
As to B1, the binding result is on record as “no binding (tested: 100 nM)”.

With B2, the binding result is reported as “no binding (tested: 100 nM)”.

Take B3: the binding result is “no binding (tested: 100 nM)”.

With B4, the binding result was “no binding (tested: 100 nM)”.

B5: the binding result is on record as “no binding (tested: 100 nM)”.

Consider B6, for which the binding result is listed as “no binding (tested: 100 nM)”.

Consider B7, for which the binding result is given as “no binding (tested: 100 nM)”.

With B8, the binding result is reported as “no binding (tested: 100 nM)”.

Turning to B9, the binding result is “no binding (tested: 100 nM)”.

Consider B10, for which the binding result is “no binding (tested: 100 nM)”.

With B11, the binding result is given as “no binding (tested: 100 nM)”.

B12: the binding result is reported as “no binding (tested: 100 nM)”.

For B13, the binding result is “no binding (tested: 100 nM)”.

The target of another assay is Human SIRPb D1 Fc (human, UniProt O00241 30-148, limits assumed). Kind of assay: ForteBio IgG avid.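 Note: antibody IgG captured on AHQ biosensors, then 100 nM Fc-fused SIRP antigen applied for 3 min, followed by 3 min buffer dissociation, kinetics fitted to a 1:1 model.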
Human SIRPb D1 Fc, sequence (O00241 30-148 limits assumed): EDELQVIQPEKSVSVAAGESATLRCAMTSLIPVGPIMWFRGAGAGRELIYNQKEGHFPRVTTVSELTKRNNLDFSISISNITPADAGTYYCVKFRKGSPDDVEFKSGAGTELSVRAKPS
Description: as §1
On to B1, for which the binding result is on record as “no binding (tested: 100 nM)”.

Regarding B2, the binding result was “no binding (tested: 100 nM)”.

For the molecule B3, the binding result is “no binding (tested: 100 nM)”.

For B4, the dissociation constant (Kd) was 22.3 nM.

In the case of B5, the binding result was “no binding (tested: 100 nM)”.

Take B6: the binding result is reported as “no binding (tested: 100 nM)”.

With B7, the binding result is “no binding (tested: 100 nM)”.

Take B8: the binding result is “no binding (tested: 100 nM)”.

Regarding B9, the binding result is on record as “no binding (tested: 100 nM)”.

Regarding B10, the binding result was “no binding (tested: 100 nM)”.

Take B11: the binding result was “no binding (tested: 100 nM)”.

As to B12, the binding result is given as “no binding (tested: 100 nM)”.

On to B13, for which the binding result is reported as “no binding (tested: 100 nM)”.

In the next assay the target is T4, human SIRPA overexpressed on CHO cells (human, UniProt P78324 31-504).
T4 construct: also called CHO-huSIRPA
Kind of assay: flow, CHO-huSIRPA.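 Note: Anti-SIRPA antibodies applied at 1 µg/mL for 1 h on ice, binding read by flow cytometry using a PE-labelled secondary antibody.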
Turning to B1, the “relative MFI” value came out at 0.806 fold over background.

In the case of B2, the “relative MFI” value came out at 48.2 fold over background.

Turning to B3, the “relative MFI” value is 50.8 fold over background.

For B4, the “relative MFI” value was found to be 1.47 fold over background.

For the molecule B5, the “relative MFI” value was determined as 11.3 fold over background.

With B6, the “relative MFI” value amounted to 0.56 fold over background.

For B7, the “relative MFI” value was determined as 35.4 fold over background.

As for B8, the “relative MFI” value is 0.775 fold over background.

Take B9: the “relative MFI” value was 12.4 fold over background.

For the molecule B10, the “relative MFI” value amounted to 0.595 fold over background.

Turning to B11, the “relative MFI” value worked out at 1.27 fold over background.

Turning to B12, the “relative MFI” value was determined as 2.96 fold over background.

As for B13, the “relative MFI” value turned out to be 27.9 fold over background.

A further assay concerns the target T1, mouse SIRPA overexpressed on CHO cells. Kind of assay: flow, CHO-muSIRPA. This is another data set of the same source.
Description: Initial characterization of anti-SIRPA antibodies of the present disclosure involved determining their ability to bind cell lines overexpressing human or mouse SIRPA. Cells were harvested, plated at 10⁶/ml in a 96 well plate, washed, and incubated in 100 ul PBS containing 1 ug/ml Mab for 1 hour in ice. Cells were then washed twice and incubated in 100 ul PBS containing 5 ug/ml PE-conjugated secondary antibody for 30 minutes in ice. Cells were washed twice in cold PBS and acquired on a BD FACS Canto. Data analysis and calculation of mean fluorescence intensity (MFI) values or % positive cells was performed with FlowJo® (TreeStar) software version 10.0.7.
Take B1: the “relative MFI” value was 0.613 fold over background.

As to B2, the “relative MFI” value was determined as 0.491 fold over background.

B3: the “relative MFI” value was 0.738 fold over background.

B4: the “relative MFI” value amounted to 0.571 fold over background.

For the molecule B5, the “relative MFI” value is 0.479 fold over background.

With B6, the “relative MFI” value was found to be 0.479 fold over background.

For B7, the “relative MFI” value was found to be 0.685 fold over background.

For B8, the “relative MFI” value was found to be 0.467 fold over background.

With B9, the “relative MFI” value was 0.509 fold over background.

For B10, the “relative MFI” value came out at 0.479 fold over background.

With B11, the “relative MFI” value stood at 0.464 fold over background.

Regarding B12, the “relative MFI” value stood at 0.458 fold over background.

B13: the “relative MFI” value came out at 0.574 fold over background.
